Results published in patent US12447213B2, “Modulation of novel immune checkpoint targets” (The Brigham and Women's Hospital, Inc., priority 2016, dated 2025).

Key:
[1] = vaccination alone or combined with a low dose of estramustine; cited from earlier work
[2] = system: pathogenic Th17 cells; test: Pathogenic Th17 differentiation in the presence of plate bound recombinant CD166, cytokine production by FACS; type: cell-based, mouse; conditions: 10 ug/ml, Gp49 dependent, WT or Gp49b KO
Method: FIG. 49. Plate-bound CD166 inhibits GM-CSF and enhances IL10 production from pathogenic Th17 cells in a Gp49 dependent way. Naïve T cells from spleen of WT or Gp49b KO mouse were differentiated into pathogenic in vitro with anti-CD3/CD28 Dynabeads in the presence of plate bound recombinant CD166 (10 ug/ml) or BSA (10 ug/ml) as control. Cytokine production from Th17 cells were measured by FACS on day 4.
(§1) To investigate the role of CD166, CD4+CD44^loCD62L^hi naïve CD4 T cells were sorted by FACS and cultured in vitro with plate-bound anti-CD3 (2 ug/ml) and anti-CD28 (2 ug/ml) plus the following polarizing cytokines: IL12 (20 ng/ml) for Th1 cells; IL4 (20 ng/ml) for Th2 cells; TGFb (5 ng/ml) for iTreg cells; IL27 (25 ng/ml) for Tr1 cells; TGFb (2 ng/ml) and IL6 (25 ng/ml) for non-pathogenic Th17; TGFb (2 ng/ml), IL6 (25 ng/ml) and IL23 (20 ng/ml), or, […] (25 ng/ml) and IL23 (20 ng/ml) for pathogenic Th17. Expression of CD166 was measured by FACS on day 3. […] (FIG. 48). To determine the effect of plate-bound CD166, naïve T cells from spleen of WT or Gp49b KO mouse were differentiated into pathogenic in vitro with anti-CD3/CD28 Dynabeads in the presence of plate bound recombinant CD166 (10 ug/ml) or BSA (10 ug/ml) as control. Cytokine production from Th17 cells were measured by FACS on day 4. […] Next, the role of exogenous CD166 was assayed. […] Stained cells were analyzed by FACS.

[3] = system: Th17 cells; test: Binding of recombinant His-tagged CD166 to Th17 cells (FACS); parameters: species or system mice; conditions: exogenous, 10 ug/ml; HBSS
Method: FIG. 50. Exogenous CD166 binds weakly to Th17 cells (in HBSS). In vitro differentiated pathogenic and non-pathogenic Th17 cells were incubated with recombinant His-tagged CD166 (10 ug/ml) in indicated buffer at room temperature for 30 min, washed twice, and then incubated with anti-His antibody for 10 min. Stained cells were analyzed by FACS.
as §1

Molecule: C[C@]12CC[C@@H]3c4ccc(OC(=O)N(CCCl)CCCl)cc4CC[C@H]3[C@@H]1CC[C@@H]2O [estramustine]
- patients with a ≥50% decrease in serum prostate specific antigen (PSA) [1]: 54%

B1: CD166: recombinant CD166; transmembrane glycoprotein (type I) encoded by the ALCAM gene, novel ligand of ILT-3 (protein, UniProt Q13740 28-583, looked up)
CD166 antigen: WYTVNSAYGDTIIIPCRLDVPQNLMFGKWKYEKPDGSPVFIAFRSSTKKSVQYDDVPEYKDRLNLSENYTLSISNARISDEKRFVCMLVTEDNVFEAPTIVKVFKQPSKPEIVSKALFLETEQLKKLGDCISEDSYPDGNITWYRNGKVLHPLEGAVVIIFKKEMDPVTQLYTMTSTLEYKTTKADIQMPFTCSVTYYGPSGQKTIHSEQAVFDIYYPTEQVTIQVLPPKNAIKEGDNITLKCLGNGNPPPEEFLFYLPGQPEGIRSSNTYTLTDVRRNATGDYKCSLIDKKSMIASTAITVHYLDLSLNPSGEVTRQIGDALPVSCTISASRNATVVWMKDNIRLRSSPSFSSLHYQDAGNYVCETALQEVEGLKKRESLTLIVEGKPQIKMTKKTDPSGLSKTIICHVEGFPKPAIQWTITGSGSVINQTEESPYINGRYYSKIIISPEENVTLTCTAENQLERTVNSLNVSAISIPEHDEADEISDENREKVNDQAKLIVGIVVGLLLAALVAGVVYWLYMKKSKTASKHVNKDLGNMEENKKLEENNHKTEA
- GM-CSF production from pathogenic Th17 cells [2]: inhibits
- IL10 production from pathogenic Th17 cells [2]: enhances
- binding to Th17 cells [3]: binds weakly
